The values below come from PMC5507214.

This data set has as its target RPA (Homo sapiens, UniProt P27694;P15927;P35244 1-616;1-270;1-121). Briefly: EMSA.

Chain of RPA (P27694 whole entry, chain 1 of 3): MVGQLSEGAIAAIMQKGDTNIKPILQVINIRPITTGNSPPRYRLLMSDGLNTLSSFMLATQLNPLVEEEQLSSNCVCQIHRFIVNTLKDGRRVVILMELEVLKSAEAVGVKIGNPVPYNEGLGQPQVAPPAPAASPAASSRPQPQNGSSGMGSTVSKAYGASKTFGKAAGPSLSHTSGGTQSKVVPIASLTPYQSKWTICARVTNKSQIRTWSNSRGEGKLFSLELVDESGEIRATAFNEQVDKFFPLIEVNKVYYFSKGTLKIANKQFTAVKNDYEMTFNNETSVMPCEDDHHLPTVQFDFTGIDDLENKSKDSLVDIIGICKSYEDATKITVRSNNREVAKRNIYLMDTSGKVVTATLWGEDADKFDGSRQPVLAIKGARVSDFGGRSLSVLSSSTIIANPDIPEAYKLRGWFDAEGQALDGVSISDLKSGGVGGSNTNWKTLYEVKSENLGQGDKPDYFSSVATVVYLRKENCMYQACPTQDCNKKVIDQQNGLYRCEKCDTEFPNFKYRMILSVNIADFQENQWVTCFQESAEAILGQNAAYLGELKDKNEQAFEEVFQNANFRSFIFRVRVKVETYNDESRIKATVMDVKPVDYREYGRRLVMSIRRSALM
Chain of RPA (P15927 whole entry, chain 2 of 3): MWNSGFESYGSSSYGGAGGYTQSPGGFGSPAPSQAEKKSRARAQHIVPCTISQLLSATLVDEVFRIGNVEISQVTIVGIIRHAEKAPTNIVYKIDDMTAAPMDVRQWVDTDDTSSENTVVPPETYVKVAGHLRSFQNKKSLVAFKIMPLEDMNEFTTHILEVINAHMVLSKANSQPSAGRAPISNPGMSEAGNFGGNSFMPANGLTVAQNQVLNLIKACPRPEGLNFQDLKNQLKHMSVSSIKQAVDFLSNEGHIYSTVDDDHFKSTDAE
Chain of RPA (P35244 whole entry, chain 3 of 3): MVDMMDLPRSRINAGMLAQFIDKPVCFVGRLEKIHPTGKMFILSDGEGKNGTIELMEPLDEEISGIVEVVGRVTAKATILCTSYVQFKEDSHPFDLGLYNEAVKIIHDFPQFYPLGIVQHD

B1: R:D (25-bp RNA:DNA hybrid) (DNA:RNA)
RNA: GCAGCUGGCACGACAGGUAUGAAUC
DNA: GATTCATACCTGTCGTGCCAGCTGC
Regarding B1, the binding result is on record as “no binding”.
